Data taken from patent US5296352.

Molecular target: recombinant hirudin variant HV1 (Hirudo medicinalis)

Substance | extent of digestion (cleavage of rHV1) [%]
Staphylococcus aureus strain V8 protease (from UniProt P0C1U8) (enzyme) | 97
lysyl endopeptidase (enzyme) | 100
